Test results as given in FireProtDB (doi:10.1021/bi961660c).
Several values for one entry are separate records, joined by “and”; a condition that tells them apart may be missing. Equal entries are not always repeated.

B1: Tryptophan synthase alpha chain, P0A877 (parent)
chain: MERYESLFAQLKERKEGAFVPFVTLGDPGIEQSLKIIDTLIEAGADALELGIPFSDPLADGPTIQNATLRAFAAGVTPAQCFEMLALIRQKHPTIPIGLLMYANLVFNKGIDEFYAQCEKVGVDSVLVADVPVEESAPFRQAALRHNVAPIFICPPNADDDLLRQIASYGRGYTYLLSRAGVTGAENRAALPLNHLVAKLKEYNAAPPLQGFGISAPDQVKAAIDAGAAGAISGSAIVKIIEQHINEPEKMLAALKVFVQPMKAATRS

Variants of: B1
Settings: Escherichia coli (strain K12), pH 7, 25 °C, GdnHCl, CD, Tris-HCl 20 mM, reversible: yes, structure 1WQ5, whole UniProt chain shown

MERYESLFAQLKERKEGAFVPFVTLGDPGIEQSLKIIDTLIEAGADALELGIPFSDALADGPTIQNATLRAFAAGVTPAQCFEMLALIRQKHPTIPIGLLMYANLVFNKGIDEFYAQCEKVGVDSVLVADVPVEESAPFRQAALRHNVAPIFICPPNADDDLLRQIASYGRGYTYLLSRAGVTGAENRAALPLNHLVAKLKEYNAAPPLQGFGISAPDQVKAAIDAGAAGAISGSAIVKIIEQHINEPEKMLAALKVFVQPMKAATRS [P57A]
ddG of mutation (higher = less stable): 0.48 kcal/mol | unfolding free energy: 7.73 kcal/mol | ddG of mutation (higher = less stable) (transition: 3): 0.24 kcal/mol | unfolding free energy (transition: 3): 4 kcal/mol and 3.76 kcal/mol

MERYESLFAQLKERKEGAFVPFVTLGDPGIEQSLKIIDTLIEAGADALELGIPFSDPLADGPTIQNATLRAFAAGVTPAQCFEMLALIRQKHPTIPIGLLMYANLVFNKGIDEFYAQCEKVGVDSVLVADVAVEESAPFRQAALRHNVAPIFICPPNADDDLLRQIASYGRGYTYLLSRAGVTGAENRAALPLNHLVAKLKEYNAAPPLQGFGISAPDQVKAAIDAGAAGAISGSAIVKIIEQHINEPEKMLAALKVFVQPMKAATRS [P132A]
ddG of mutation (higher = less stable): 1.05 kcal/mol | unfolding free energy: 7.15 kcal/mol | unfolding free energy (transition: 3): 3.33 kcal/mol and 3.85 kcal/mol

MERYESLFAQLKERKEGAFVPFVTLGDPGIEQSLKIIDTLIEAGADALELGIPFSDPLADGPTIQNATLRAFAAGVTPAQCFEMLALIRQKHPTIPIGLLMYANLVFNKGIDEFYAQCEKVGVDSVLVADVPVEESAPFRQAALRHNVAPIFICPPNADDDLLRQIASYGRGYTYLLSRAGVTGAENRAALPLNHLVAKLKEYNAAAPLQGFGISAPDQVKAAIDAGAAGAISGSAIVKIIEQHINEPEKMLAALKVFVQPMKAATRS [P207A]
unfolding free energy (transition: 3): 2.44 kcal/mol and 4.62 kcal/mol

MERYESLFAQLKERKEGAFVPFVTLGDAGIEQSLKIIDTLIEAGADALELGIPFSDPLADGPTIQNATLRAFAAGVTPAQCFEMLALIRQKHPTIPIGLLMYANLVFNKGIDEFYAQCEKVGVDSVLVADVPVEESAPFRQAALRHNVAPIFICPPNADDDLLRQIASYGRGYTYLLSRAGVTGAENRAALPLNHLVAKLKEYNAAPPLQGFGISAPDQVKAAIDAGAAGAISGSAIVKIIEQHINEPEKMLAALKVFVQPMKAATRS [P28A]
ddG of mutation (higher = less stable): 1.91 kcal/mol | unfolding free energy: 6.29 kcal/mol | unfolding free energy (transition: 3): 2.27 kcal/mol and 4.04 kcal/mol

MERYESLFAQLKERKEGAFVPFVTLGDPGIEQSLKIIDTLIEAGADALELGIPFSDPLADGPTIQNATLRAFAAGVTPAQCFEMLALIRQKHPTIAIGLLMYANLVFNKGIDEFYAQCEKVGVDSVLVADVPVEESAPFRQAALRHNVAPIFICPPNADDDLLRQIASYGRGYTYLLSRAGVTGAENRAALPLNHLVAKLKEYNAAPPLQGFGISAPDQVKAAIDAGAAGAISGSAIVKIIEQHINEPEKMLAALKVFVQPMKAATRS [P96A]
ddG of mutation (higher = less stable): 2.13 kcal/mol | unfolding free energy: 6.08 kcal/mol | ddG of mutation (higher = less stable) (transition: 3): 1.6 kcal/mol and 0.55 kcal/mol | unfolding free energy (transition: 3): 2.63 kcal/mol and 3.44 kcal/mol

MERYESLFAQLKERKEGAFVPFVTLGDPGIEQSLKIIDTLIEAGADALELGIPFSDPLADGATIQNATLRAFAAGVTPAQCFEMLALIRQKHPTIPIGLLMYANLVFNKGIDEFYAQCEKVGVDSVLVADVPVEESAPFRQAALRHNVAPIFICPPNADDDLLRQIASYGRGYTYLLSRAGVTGAENRAALPLNHLVAKLKEYNAAPPLQGFGISAPDQVKAAIDAGAAGAISGSAIVKIIEQHINEPEKMLAALKVFVQPMKAATRS [P62A]
ddG of mutation (higher = less stable): 0.31 kcal/mol | unfolding free energy: 7.89 kcal/mol | unfolding free energy (transition: 3): 3.54 kcal/mol and 4.35 kcal/mol
